What was measured:
[1] = biological target: TDP-43 102-260 (RRM1-RRM2) (Homo sapiens, UniProt Q13148); assay: MST; apparent Kd; NMR: 40 mM HEPES pH 6.5, 300 mM NaCl, 4 mM DTT, 25 C, 25 uM protein; EMSA: same buffer, 25 C incubation, 6.25% PAGE 0.5x TBE at 4 C; MST and HTRF buffers not in material; settings: protein: recombinant; tags: His (MST: NT-647 labelled HisTDP-43; tag cleaved when needed); single strand
[2] = biological target: TDP-43 1-260 (NTD-RRM1-RRM2) (Homo sapiens, UniProt Q13148); assay: as above; settings: protein: recombinant; tags: His (MST: NT-647 labelled HisTDP-43; tag cleaved when needed); single strand
Sequence of TDP-43 1-260 (NTD-RRM1-RRM2) (Q13148 1-260): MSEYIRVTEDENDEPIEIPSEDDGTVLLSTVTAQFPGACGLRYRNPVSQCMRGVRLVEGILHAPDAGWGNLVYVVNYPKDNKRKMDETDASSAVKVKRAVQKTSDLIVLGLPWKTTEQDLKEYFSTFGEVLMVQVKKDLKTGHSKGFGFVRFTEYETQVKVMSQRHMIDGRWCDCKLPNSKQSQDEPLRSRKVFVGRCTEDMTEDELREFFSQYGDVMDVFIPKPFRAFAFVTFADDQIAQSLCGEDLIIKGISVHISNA

TDP-43 1-102 (NTD) = TDP-43 1-102 (NTD) (Homo sapiens, UniProt Q13148); assay: HTRF; ligand (UG)6 per legend; Methods heading names biotin (UG)4; NMR: 40 mM HEPES pH 6.5, 300 mM NaCl, 4 mM DTT, 25 C, 25 uM protein; EMSA: same buffer, 25 C incubation, 6.25% PAGE 0.5x TBE at 4 C; MST and HTRF buffers not in material; settings: protein: recombinant; tags: His; single strand
Sequence of TDP-43 1-102 (NTD) (Q13148 1-102): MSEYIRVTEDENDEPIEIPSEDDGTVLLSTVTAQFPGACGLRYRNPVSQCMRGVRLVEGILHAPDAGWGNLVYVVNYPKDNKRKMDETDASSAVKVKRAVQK

Sequence of TDP-43 102-260 (RRM1-RRM2) (Q13148 102-260): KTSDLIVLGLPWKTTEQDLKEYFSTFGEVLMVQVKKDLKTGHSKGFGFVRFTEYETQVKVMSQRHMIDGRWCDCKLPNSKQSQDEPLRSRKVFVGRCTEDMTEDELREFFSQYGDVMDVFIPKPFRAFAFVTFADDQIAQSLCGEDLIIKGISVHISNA

Question: Which results are given for UGUGUGUGUGUG (ssRNA) [(UG)6]?
Answer: Kd [1]: 39.8 nM; Kd [2]: 28.4 nM

Question: For UGUGUGUG (ssRNA) [(UG)4], which Kd [2] is on record?
Answer: 246 nM

Question: Does UGUGUGUGUGUG (ssRNA) [(UG)6 HTRF ligand] bind (TDP-43 1-102 (NTD))?
Answer: no binding
